In patent US12514920B1, “Respiratory syncytial virus mRNA vaccine, and preparation method therefor and use thereof” (Hangzhou Tianlong Pharmaceutical Co., Ltd., priority 2024, dated 2026):
Where a chain is given by its changes, count along the chain named.

B1: YK-RSV-009 (protein)
chain: QNITEEFYCSTCSAVSKGYLGALRTGWYTSVILIELSNIKENKCNGTDAKVKLIKQELDKYKNAVTDLQLLMQSTPATGSGSAIASGVAVSKVLHLEGEVNKIKSALLSTNKAVVSLSNGVSVLTFKVLDLKNYIDKQLLPIVNKQSCSIPNIETVIEFQQKNNRLLEITREFSVNAGVTTPVSTYMLTNSELLSLINDMPITNDQKKLMSNNVQIVRQQSYSIMSIIKEEVLAYVVQLPLYGVIDTPCWKLHTSPLCTTNTKEGSNICLTRTDRGWYCDNAGSVSFFPQAETCKVQSNRVFCDTMNSRTLPSEVNLCNVDIFNPKYDCKIMTSKTDVSSSVITSLGAIVSCYGKTKCTASNKNRGIIKTFSNGCDYVSNKGVDTVSVGNTLYYVNKQEGQSLYVKCEPIINFYDPLVFPSSEFDASISQVNEKINQSLAFIRKSDELLHNVNAGKSTTNIMITTIIIVIIVILLSLIAVGLLLY
B2: YK-RSV-048 (protein)
chain: QNITEEFYQSTCSAVSKGYLGALRTGWYTSVITIELSNIKENKCNGTDAKVKLIKQELDKYKNAVTDLQLLMQSTPATGSGSFLGFLCGVGSAIASGVAVSKVLHLEGEVNKIKSALLSTNKAVVSLSNGVSVLTFKVLDLKNYIDKQLLPILNKQSCSIPNIETVIEFQQKNNRLLEITREFSVNAGVTTPVSTYMLTNSELLSLINDMPITNDQKKLMSNNVQIVRQQSYSIMSIIKEEVLAYVVQLPLYGVIDTPCWKLHTSPLCTTNTKEGSNICLTRTDRGWYCDNAGSVSFFPQAETCKVQSNRVFCDTMCSRTLPSEVNLCNVDIFNPKYDCKIMTSKTDVSSSVITSLGAIVSCYGKTKCTASNKNRGIIKTFSNGCDYVSNKGVDTVSVGNTLYYVNKQEGQSLYVKGEPIINFYDPLVFPSDEFDASISQVNEKINQSLAFIRKSDELLHNVNAGKSTTNIMITTIIIVIIVILLSLIAVGLLLY
B3: YK-RSV-050 (protein)
chain: B2 chain with L87C, C88L
B4: YK-RSV-043 (protein)
chain: B1 chain with C9Q, L33T, T75C, S86C, V143L, C407G, S422D
B5: YK-RSV-057 (protein)
chain: B1 chain with C9Q, L33T, A83C, V143L, I227C, C407G, S422D
B6: YK-RSV-055 (protein)
chain: B1 chain with C9Q, L33T, A83C, V143L, I228C, C407G, S422D
B7: YK-RSV-010 (protein)
chain: B1 chain with C9Q, S30C, L124C, C407G

These molecules were tested on RSV F antibody (11A9) (assay: Binding of epitope II of RSV F antigen mutants by flow cytometry). Details: epitope II, antibody 11A9.
In short: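 293T cells were transfected with mRNA-LNP (300 ng mRNA) encoding the RSV F mutants and harvested after 16 h. Cells were stained with fluorescent 3C12 (pre-F-specific epitope Φ) or 11A9 (epitope II, pre-F and post-F) for 2 h at 4 °C in the dark, then washed and read by flow cytometry on 1×10^4 cells per measurement.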

Q: Which “RSV F antibody (11A9) Epitope II (%) binding rate” value (“RSV F antibody … (%) binding rate” for short) does the source give for B1 here?
A: 93.1%

Q: Which “RSV F antibody … (%) binding rate” value does the source give for B2 here?
A: 95.1%

Q: How did the “RSV F antibody … (%) binding rate” value turn out when B3 was run?
A: 93.0%

These molecules were tested on RSV pre-F antibody (3C12) (assay: not given). Details: all stress tests; binding to 3C12, ELISA.
Type: physicochemical
In short: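 RSV F mRNA-vaccine mutants stress-treated: 4° C. for one week, 50° C. for 60 min, low or high osmotic pressure at room temperature for 60 min, acid or base at room temperature for 60 min. Binding to 3C12 (epitope Φ) then measured by ELISA against pre-F trimer standard, HRP anti-human IgG, OD 450/630 nm.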

Q: For B1, which “stability under the stress tests (in words)” value (from here on “stability”) is on record?
A: superior stability

Q: With B4 as the molecule, how does the “stability” value read?
A: superior stability

Q: Which “stability” value does the source give for B5 here?
A: superior stability

Q: For B6, which “stability” value is on record?
A: superior stability

Q: For B7, which “stability” value is on record?
A: superior stability

Q: How did the “stability” value turn out when B2 was run?
A: superior stability

Q: How did the “stability” value turn out when B3 was run?
A: superior stability

Same assay, conditions: high osmotic pressure 3000 mM, room temperature, 60 min; ELISA binding to 3C12

Q: How did the “Stress resistance parameter, Osmotic pressure (mM) 3000” value turn out when B1 was run?
A: 0.69 ± 0.15

Q: B4 was tested. Which “Stress resistance parameter, Osmotic pressure (mM) 3000” value did it give?
A: 0.72 ± 0.09

Q: With B5 as the molecule, how does the “Stress resistance parameter, Osmotic pressure (mM) 3000” value read?
A: 0.64 ± 0.15

Q: Which “Stress resistance parameter, Osmotic pressure (mM) 3000” value does the source give for B6 here?
A: 0.71 ± 0.23

Q: For B7, which “Stress resistance parameter, Osmotic pressure (mM) 3000” value is on record?
A: 0.84 ± 0.11

Q: For B2, which “Stress resistance parameter, Osmotic pressure (mM) 3000” value is on record?
A: 0.61 ± 0.17

Q: For B3, which “Stress resistance parameter, Osmotic pressure (mM) 3000” value is on record?
A: 0.66 ± 0.15

Same assay, conditions: incubation at 50° C. for 60 min; ELISA binding to 3C12

Q: With B1 as the molecule, how does the “Stress resistance parameter, Temperature (° C.) 50” value read?
A: 0.84 ± 0.04

Q: B4 was tested. Which “Stress resistance parameter, Temperature (° C.) 50” value did it give?
A: 0.66 ± 0.06

Q: Which “Stress resistance parameter, Temperature (° C.) 50” value does the source give for B5 here?
A: 0.64 ± 0.17

Q: How did the “Stress resistance parameter, Temperature (° C.) 50” value turn out when B6 was run?
A: 0.78 ± 0.19

Q: How did the “Stress resistance parameter, Temperature (° C.) 50” value turn out when B7 was run?
A: 1.04 ± 0.09

Q: Which “Stress resistance parameter, Temperature (° C.) 50” value does the source give for B2 here?
A: 0.70 ± 0.07

Q: Which “Stress resistance parameter, Temperature (° C.) 50” value does the source give for B3 here?
A: 0.69 ± 0.15

Same assay, conditions: low osmotic pressure 10 mM, room temperature, 60 min; ELISA binding to 3C12

Q: With B1 as the molecule, how does the “Stress resistance parameter, Osmotic pressure (mM) 10” value (from here on “Stress resistance parameter … (mM) 10”) read?
A: 0.78 ± 0.15

Q: For B4, which “Stress resistance parameter … (mM) 10” value is on record?
A: 0.84 ± 0.18

Q: For B5, which “Stress resistance parameter … (mM) 10” value is on record?
A: 0.70 ± 0.07

Q: How did the “Stress resistance parameter … (mM) 10” value turn out when B6 was run?
A: 0.72 ± 0.20

Q: With B7 as the molecule, how does the “Stress resistance parameter … (mM) 10” value read?
A: 0.97 ± 0.07

Q: How did the “Stress resistance parameter … (mM) 10” value turn out when B2 was run?
A: 0.75 ± 0.00

Q: Which “Stress resistance parameter … (mM) 10” value does the source give for B3 here?
A: 0.87 ± 0.19

Same assay, conditions: pH 3.5, room temperature, 60 min; ELISA binding to 3C12

Q: For B1, which “Stress resistance parameter, pH 3.5” value is on record?
A: 0.60 ± 0.14

Q: B4 was tested. Which “Stress resistance parameter, pH 3.5” value did it give?
A: 0.90 ± 0.13

Q: For B5, which “Stress resistance parameter, pH 3.5” value is on record?
A: 0.56 ± 0.08

Q: For B6, which “Stress resistance parameter, pH 3.5” value is on record?
A: 0.69 ± 0.08

Q: How did the “Stress resistance parameter, pH 3.5” value turn out when B7 was run?
A: 0.82 ± 0.05

Q: Which “Stress resistance parameter, pH 3.5” value does the source give for B2 here?
A: 0.61 ± 0.07

Q: B3 was tested. Which “Stress resistance parameter, pH 3.5” value did it give?
A: 1.23 ± 0.27

Same assay, conditions: pH 10, room temperature, 60 min; ELISA binding to 3C12

Q: For B1, which “Stress resistance parameter, pH 10” value is on record?
A: 0.91 ± 0.04

Q: With B4 as the molecule, how does the “Stress resistance parameter, pH 10” value read?
A: 0.75 ± 0.28

Q: How did the “Stress resistance parameter, pH 10” value turn out when B5 was run?
A: 0.56 ± 0.09

Q: How did the “Stress resistance parameter, pH 10” value turn out when B6 was run?
A: 0.79 ± 0.26

Q: For B7, which “Stress resistance parameter, pH 10” value is on record?
A: 0.93 ± 0.05

Q: How did the “Stress resistance parameter, pH 10” value turn out when B2 was run?
A: 1.13 ± 0.19

Q: For B3, which “Stress resistance parameter, pH 10” value is on record?
A: 1.16 ± 0.37

Same assay, conditions: storage at 4° C. for one week; ELISA binding to 3C12

Q: Which “Stress resistance parameter, Temperature (° C.) 4” value does the source give for B1 here?
A: 0.71 ± 0.11

Q: Which “Stress resistance parameter, Temperature (° C.) 4” value does the source give for B4 here?
A: 0.70 ± 0.13

Q: How did the “Stress resistance parameter, Temperature (° C.) 4” value turn out when B5 was run?
A: 0.61 ± 0.10

Q: B6 was tested. Which “Stress resistance parameter, Temperature (° C.) 4” value did it give?
A: 0.48 ± 0.11

Q: Which “Stress resistance parameter, Temperature (° C.) 4” value does the source give for B7 here?
A: 0.86 ± 0.08

Q: Which “Stress resistance parameter, Temperature (° C.) 4” value does the source give for B2 here?
A: 0.46 ± 0.08

Q: Which “Stress resistance parameter, Temperature (° C.) 4” value does the source give for B3 here?
A: 0.46 ± 0.07
